This assay concerns the target enhanced green fluorescent protein-labelled G-protein-coupled receptor kinase-interacting protein 1 (GIT1) (UniProt Q9Y2X7). As to the kind of experiment: MST; enhanced green fluorescent protein-labelled GIT1 in human embryonic kidney 293 cell lysate at constant 20 nmol/L, serial dilution of purified CLIC4; Monolith NT.115.
Sequence of UniProt Q9Y2X7 (Q9Y2X7 whole entry): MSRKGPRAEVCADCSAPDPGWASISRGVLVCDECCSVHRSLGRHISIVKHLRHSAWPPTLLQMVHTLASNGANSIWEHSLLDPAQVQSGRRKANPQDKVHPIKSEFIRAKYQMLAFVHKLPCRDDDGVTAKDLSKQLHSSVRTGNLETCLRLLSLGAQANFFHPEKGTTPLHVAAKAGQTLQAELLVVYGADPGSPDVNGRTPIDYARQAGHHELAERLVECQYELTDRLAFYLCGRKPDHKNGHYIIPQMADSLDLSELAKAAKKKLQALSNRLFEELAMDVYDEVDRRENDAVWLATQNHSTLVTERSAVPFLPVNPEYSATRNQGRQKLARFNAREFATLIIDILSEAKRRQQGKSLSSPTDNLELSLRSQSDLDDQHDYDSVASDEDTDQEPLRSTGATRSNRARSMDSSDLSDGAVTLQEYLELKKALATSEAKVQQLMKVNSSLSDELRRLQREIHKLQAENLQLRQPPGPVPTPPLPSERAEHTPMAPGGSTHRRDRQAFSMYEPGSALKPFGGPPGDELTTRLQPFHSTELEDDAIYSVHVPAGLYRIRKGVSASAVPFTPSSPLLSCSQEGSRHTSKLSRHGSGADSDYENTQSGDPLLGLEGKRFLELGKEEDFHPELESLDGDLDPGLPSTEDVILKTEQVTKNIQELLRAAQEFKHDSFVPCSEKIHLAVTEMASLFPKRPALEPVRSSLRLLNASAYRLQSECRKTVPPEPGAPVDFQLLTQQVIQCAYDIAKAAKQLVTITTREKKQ

In the case of “purified CLIC4 (ab104744; Abcam) (from UniProt Q9Y696 1-253) (natural protein)”, the Kd is 1800 nM.

A word on the Kd: it is the free concentration of one partner at which half of the binding sites on the other are occupied at equilibrium, for simple one-to-one binding.

The values are drawn from paper PMC6325770.
